Assay results as given in US20210347873A1 (SHANGHAI PHARMAEXPLORER, published 2021).

T1: cynomolgus BLyS (full length, arginine to histidine at position 132) on CHO-K1 cells (cynomolgus, UniProt Q9Y275 1-285 (human entry))
T1 construct: also called cyno BLyS; CHO-K1 cynoBLyS
T1 chain: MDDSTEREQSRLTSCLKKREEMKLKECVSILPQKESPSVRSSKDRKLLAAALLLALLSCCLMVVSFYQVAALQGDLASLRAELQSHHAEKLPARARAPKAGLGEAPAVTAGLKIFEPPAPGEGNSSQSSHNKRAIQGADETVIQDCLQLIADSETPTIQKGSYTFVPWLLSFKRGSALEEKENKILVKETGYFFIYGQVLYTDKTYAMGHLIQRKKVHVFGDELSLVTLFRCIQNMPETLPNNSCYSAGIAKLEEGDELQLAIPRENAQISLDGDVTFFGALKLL


What was measured:
mouse BLyS protein = mouse BLyS protein (mouse, UniProt Q9WU72 69-309); experiment: cell-based or functional assay
mouse BLyS protein, sequence (Q9WU72 69-309): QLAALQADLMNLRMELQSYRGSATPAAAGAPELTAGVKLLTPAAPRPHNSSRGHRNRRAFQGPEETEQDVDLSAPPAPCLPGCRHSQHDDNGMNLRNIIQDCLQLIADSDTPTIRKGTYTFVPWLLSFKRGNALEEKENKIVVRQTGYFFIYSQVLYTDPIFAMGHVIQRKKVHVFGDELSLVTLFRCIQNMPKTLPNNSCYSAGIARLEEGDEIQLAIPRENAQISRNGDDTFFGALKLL

[1] = molecular target: T2, human BLyS (full length, arginine to histidine at position 132) on CHO-K1 cells (human, UniProt Q9Y275 1-285); experiment: flow cytometry, CHO-K1 hBLyS cells, antibody 13.3 nM
T2 construct: also called hBLyS; CHO-K1 hBLyS
T2 sequence (Q9Y275 whole entry R130H): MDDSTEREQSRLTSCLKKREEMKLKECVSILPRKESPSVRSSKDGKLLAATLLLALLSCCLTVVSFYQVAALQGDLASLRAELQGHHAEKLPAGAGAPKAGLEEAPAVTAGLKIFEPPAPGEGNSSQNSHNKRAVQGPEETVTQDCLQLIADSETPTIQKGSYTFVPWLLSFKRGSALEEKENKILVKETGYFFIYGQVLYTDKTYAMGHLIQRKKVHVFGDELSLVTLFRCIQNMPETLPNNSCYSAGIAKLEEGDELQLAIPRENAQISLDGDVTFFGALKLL

[2] = molecular target: T2, human BLyS (full length, arginine to …); experiment: flow cytometry, CHO-K1 hBLyS cells, antibody 2.67 nM
[3] = molecular target: T1, cynomolgus BLyS (full length, arginine …); experiment: flow cytometry, CHO-K1 cynoBLyS cells, antibody 13.3 nM
[4] = molecular target: T1, cynomolgus BLyS (full length, arginine …); experiment: flow cytometry, CHO-K1 cynoBLyS cells, antibody 2.67 nM
[5] = molecular target: T1, cynomolgus BLyS (full length, arginine …); experiment: flow cytometry, CHO-K1 cynoBLyS cells, antibody 66.7 nM
[6] = molecular target: T1, cynomolgus BLyS (full length, arginine …); experiment: flow cytometry, CHO-K1 cynoBLyS cells, antibody 0.107 nM
[7] = molecular target: T1, cynomolgus BLyS (full length, arginine …); experiment: flow cytometry, CHO-K1 cynoBLyS cells, antibody 0.534 nM

Row | Binder | mouse B lymphocyte proliferation (OD450 nm), antibody 0 nM (mouse BLyS protein) | mouse B lymphocyte proliferation (OD450 nm), antibody 0.000256 nM (mouse BLyS protein) | mouse B lymphocyte proliferation (OD450 nm), antibody 0.00128 nM (mouse BLyS protein) | mouse B lymphocyte proliferation (OD450 nm), antibody 0.0064 nM (mouse BLyS protein) | mouse B lymphocyte proliferation (OD450 nm), antibody 0.032 nM (mouse BLyS protein) | mouse B lymphocyte proliferation (OD450 nm), antibody 0.16 nM (mouse BLyS protein) | mouse B lymphocyte proliferation (OD450 nm), antibody 0.8 nM (mouse BLyS protein) | mouse B lymphocyte proliferation (OD450 nm), antibody 4 nM (mouse BLyS protein) | mouse B lymphocyte proliferation (OD450 nm), antibody 20 nM (mouse BLyS protein) | mouse B lymphocyte proliferation (OD450 nm), antibody 100 nM (mouse BLyS protein) | MFI [1] | MFI [2] | MFI [3] | MFI [4] | MFI [5] | MFI [6] | MFI [7]
1 | L1D12 (antibody, V domains shown, From a human naive scFv phage library; also called human BLyS antibody L1D12; LID12) VH: QVQLVQSGGGLVQPGGSLRLSCAASGFTVSSNYMSWVRQAPGKGLEWVSVIYSGGSTYYADSVKGRFTISRDNSKNTLYLQMNSLRAEDTAVYYCARGFHDILTGYGMDVWGQGTTVTVSS VL: SSELTQDPAVSVALGQTVRITCQGDSLRNYYAGWYQQKPGQAPVLVIYGKNNRPSGIPDRFSGSSSGNTASLTITGTQAEDEADYYCSSRDNSGTHLVEFGGGTKLTVL | 2340 OD450 nm | 2450 OD450 nm | 2610 OD450 nm | 2500 OD450 nm | 2460 OD450 nm | 2520 OD450 nm | 2410 OD450 nm | 2560 OD450 nm | 2460 OD450 nm | 2450 OD450 nm | 522 MFI | 503 MFI | 1130 MFI | 1170 MFI | 1180 MFI | 364 MFI | 900 MFI
2 | 2-1G11 (antibody, V domains shown, From a human naive scFv phage library; also called human BLyS antibody 2-1G11) VH: EVQLVESRGGVVQPGRSLRLSCAASGFTFSSYGMHWVRQAPGKGLEWVAVISYDGSNKYYADSVKGRFTISRDNSKNTLYLQMNSLRAEDAAVYYCARDRVDILTGYSIYGMDVWGQGTTVTVSS VL: EIVMTQSPATLSLSPGERATLSCRASQSVSSYLAWYQQKPGQAPRLLIYDASKRATGIPARFSGSGSGTDFTLTISSLEPEDFAVYYCQQRSNWPLTFGGGTKVEIK | 2320 OD450 nm | 2450 OD450 nm | 2560 OD450 nm | 2610 OD450 nm | 2470 OD450 nm | 2750 OD450 nm | 2820 OD450 nm | 2460 OD450 nm | 2680 OD450 nm | 2490 OD450 nm | 633 MFI | 627 MFI | 1450 MFI | 1480 MFI | 1460 MFI | 816 MFI | 1400 MFI
3 | L9G7 (antibody, V domains shown, From a human naive scFv phage library; also called human BLyS antibody L9G7) VH: QIQLVQSGAEVKKPGASVKVSCKASGYTFTSYGISWVRQAPGQGLEWMGWISAYNGNTNYAQKLQGRVTMTTDTSTSTAYMELRSLRSDDTAVYYCARTYYDILTGYYYYGMDVWGQGTTVTVSS VL: EIVLTQSPGTLSLSPGERATLSCRTSQSVDTYLAWYQQKPGQAPRLLIYDASNRATGIPARFSGSGSGTDFTLTISSLEPEDFAVYYCQQRSNWPLTFGGGTKVEIK | 2100 OD450 nm | 2430 OD450 nm | 2480 OD450 nm | 2460 OD450 nm | 2340 OD450 nm | 2260 OD450 nm | 640 OD450 nm | 308 OD450 nm | 243 OD450 nm | 221 OD450 nm | 630 MFI | 591 MFI | 1280 MFI | 1280 MFI | 1340 MFI | 387 MFI | 1010 MFI
